# Measurements: patent publication US20210253998A1 (published 2021)
# B1: Mbd3 (endogenous, mouse cells) (other, UniProt Q9Z2D8 1-285, looked up)
# chain: MERKRWECPALPQGWEREEVPRRSGLSAGHRDVFYYSPSGKKFRSKPQLARYLGGSMDLSTFDFRTGKMLMNKMNKSRQRVRYDSSNQVKGKPDLNTALPVRQTASIFKQPVTKITNHPSNKVKSDPQKAVDQPRQLFWEKKLSGLSAFDIAEELVRTMDLPKGLQGVGPGCTDETLLSAIASALHTSTLPITGQLSAAVEKNPGVWLNTAQPLCKAFMVTDDDIRKQEELVQQVRKRLEEALMADMLAHVEELARDGEAPLDKACAEEEEEEEEEEEEPEPERV
# B2: Flag-tagged Mbd3 (other)
# chain: MERKRWECPALPQGWEREEVPRRSGLSAGHRDVFYYSPSGKKFRSKPQLARYLGGSMDLSTFDFRTGKMLMSKMNKSRQRVRYDSSNQVKGKPDLNTALPVRQTASIFKQPVTKITNHPSNKVKSDPQKAVDQPRQLFWEKKLSGLNAFDIAEELVKTMDLPKGLQGVGPGCTDETLLSAIASALHTSTMPITGQLSAAVEKNPGVWLNTTQPLCKAFMVTDEDIRKQEELVQQVRKRLEEALMADMLAHVEELARDGEAPLDKACAEDDDEEDEEEEEEEPDPDPEMEHV
# notes: also called pCaggs-Flag-Mbd3; Flag-tagged Mbd3 transgene; not shown: Flag tag
# Columns and labels:
# [1] = molecular target: T1, Mta2 (endogenous, mouse cells) (mouse, UniProt Q9R190 1-668); assay: co-IP from a control ESC line, western blot
# T1 sequence (looked up): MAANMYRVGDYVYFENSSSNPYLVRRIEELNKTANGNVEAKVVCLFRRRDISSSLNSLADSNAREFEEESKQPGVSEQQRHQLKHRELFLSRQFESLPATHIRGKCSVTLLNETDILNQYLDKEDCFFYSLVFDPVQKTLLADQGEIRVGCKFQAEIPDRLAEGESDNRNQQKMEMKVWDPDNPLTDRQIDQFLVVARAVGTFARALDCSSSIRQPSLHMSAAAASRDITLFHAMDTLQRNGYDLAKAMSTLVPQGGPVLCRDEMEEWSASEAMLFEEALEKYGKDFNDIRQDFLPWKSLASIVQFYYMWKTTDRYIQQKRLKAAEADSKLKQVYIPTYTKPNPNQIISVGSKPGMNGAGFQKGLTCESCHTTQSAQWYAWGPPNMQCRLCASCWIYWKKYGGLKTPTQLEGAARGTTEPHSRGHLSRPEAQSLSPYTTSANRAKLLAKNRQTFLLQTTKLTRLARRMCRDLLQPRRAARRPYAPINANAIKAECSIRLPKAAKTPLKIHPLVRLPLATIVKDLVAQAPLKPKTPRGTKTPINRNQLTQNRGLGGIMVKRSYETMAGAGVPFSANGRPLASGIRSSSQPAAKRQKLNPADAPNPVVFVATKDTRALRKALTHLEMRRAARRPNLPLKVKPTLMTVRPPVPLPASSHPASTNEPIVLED
# [2] = molecular target: T2, Mbd2 (endogenous, mouse ESCs) (mouse, UniProt Q9Z2E1 1-414, limits assumed); assay: pull down of Mbd2 from a control ESC line, western blot
# [3] = molecular target: T2, Mbd2 (endogenous, mouse ESCs); assay: co-IP with flag beads from ESCs carrying a Flag-tagged Mbd3 transgene, western blot
# Source text: FIG. 61A—The present inventors established an ESC line carrying recovery of Flag-tagged Mbd3 transgene inserted in Mbd3^{-/-} ESC line. […] Moreover, Mbd3 interacts with Sall4 pluripotency reprogramming factor in ESCs. […] These assays recapitulate observation in many other cell lines where Mbd2 and Mbd3 form mutually exclusive complexes (Le Guezennec, X. et al. Mol. Cell. Biol. 26, 843-851, 2006; Aguilera, C. et al. Nature 469, 231-235, 2011).
# T2 sequence (Q9Z2E1 whole entry): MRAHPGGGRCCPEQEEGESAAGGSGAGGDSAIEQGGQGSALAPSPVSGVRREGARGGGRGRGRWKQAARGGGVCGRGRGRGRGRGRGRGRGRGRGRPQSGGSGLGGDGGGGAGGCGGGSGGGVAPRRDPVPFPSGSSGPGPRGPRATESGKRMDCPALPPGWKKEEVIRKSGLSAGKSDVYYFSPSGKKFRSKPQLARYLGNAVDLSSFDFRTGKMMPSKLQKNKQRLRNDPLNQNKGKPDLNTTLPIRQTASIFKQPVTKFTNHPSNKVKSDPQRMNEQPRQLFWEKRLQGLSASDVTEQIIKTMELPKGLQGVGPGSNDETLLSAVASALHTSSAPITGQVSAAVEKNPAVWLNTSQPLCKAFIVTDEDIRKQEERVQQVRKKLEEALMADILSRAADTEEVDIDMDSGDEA
Binder,binding result [1],binding result [2],binding result [3]
B1,binds,no binding,
B2,,,no binding
